In paper PMC11617691, “‘GGFGGQ’ repeats in Hfq of Acinetobacter baumannii are essential for nutrient utilization and virulence”:

Legend:
Hfq66 = molecular target: T1, Hfq66 (Acinetobacter baumannii, UniProt V5VC31 1-66); assay: fluorescence anisotropy; higher affinity (lower Kd) than WT; Kd printed only in figure; TNK buffer: 10 mM Tris-HCl pH 7.5, 50 mM NaCl, 50 mM KCl; 50 nM D16-FAM; 30 °C; 100 µl; conditions: protein: recombinant; tags: none (tag-free); chain copies: 6; label: 5'-FAM
T1 sequence: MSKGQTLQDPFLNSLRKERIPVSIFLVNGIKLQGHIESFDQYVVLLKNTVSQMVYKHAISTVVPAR

Hfq WT = molecular target: T2, Hfq WT (Acinetobacter baumannii, UniProt V5VC31 1-168); assay: fluorescence anisotropy; Kd printed only in figure; TNK buffer: 10 mM Tris-HCl pH 7.5, 50 mM NaCl, 50 mM KCl; 50 nM D16-FAM; 30 °C; 100 µl; conditions: protein: recombinant; tags: none (tag-free, stop codon in pET-28); chain copies: 6; label: 5'-FAM
T2 sequence: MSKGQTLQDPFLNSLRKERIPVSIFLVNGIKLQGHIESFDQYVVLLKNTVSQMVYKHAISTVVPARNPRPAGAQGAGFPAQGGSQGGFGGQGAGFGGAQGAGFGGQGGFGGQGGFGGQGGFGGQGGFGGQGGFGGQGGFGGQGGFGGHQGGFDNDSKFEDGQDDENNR

CGAAUUUUUUAAGUGC (ssRNA) [D16-FAM]
binding result (Hfq66): binds | binding result (Hfq WT): binds
